# Test results: paper PMC5131575 (Biomaterials, 2016)
# Molecular target: Clathrin triskelions (bovine (purified from bovine brain), UniProt P49951 1-1675)
# Experiment: SPR
# Sequence of Clathrin triskelions (P49951 whole entry): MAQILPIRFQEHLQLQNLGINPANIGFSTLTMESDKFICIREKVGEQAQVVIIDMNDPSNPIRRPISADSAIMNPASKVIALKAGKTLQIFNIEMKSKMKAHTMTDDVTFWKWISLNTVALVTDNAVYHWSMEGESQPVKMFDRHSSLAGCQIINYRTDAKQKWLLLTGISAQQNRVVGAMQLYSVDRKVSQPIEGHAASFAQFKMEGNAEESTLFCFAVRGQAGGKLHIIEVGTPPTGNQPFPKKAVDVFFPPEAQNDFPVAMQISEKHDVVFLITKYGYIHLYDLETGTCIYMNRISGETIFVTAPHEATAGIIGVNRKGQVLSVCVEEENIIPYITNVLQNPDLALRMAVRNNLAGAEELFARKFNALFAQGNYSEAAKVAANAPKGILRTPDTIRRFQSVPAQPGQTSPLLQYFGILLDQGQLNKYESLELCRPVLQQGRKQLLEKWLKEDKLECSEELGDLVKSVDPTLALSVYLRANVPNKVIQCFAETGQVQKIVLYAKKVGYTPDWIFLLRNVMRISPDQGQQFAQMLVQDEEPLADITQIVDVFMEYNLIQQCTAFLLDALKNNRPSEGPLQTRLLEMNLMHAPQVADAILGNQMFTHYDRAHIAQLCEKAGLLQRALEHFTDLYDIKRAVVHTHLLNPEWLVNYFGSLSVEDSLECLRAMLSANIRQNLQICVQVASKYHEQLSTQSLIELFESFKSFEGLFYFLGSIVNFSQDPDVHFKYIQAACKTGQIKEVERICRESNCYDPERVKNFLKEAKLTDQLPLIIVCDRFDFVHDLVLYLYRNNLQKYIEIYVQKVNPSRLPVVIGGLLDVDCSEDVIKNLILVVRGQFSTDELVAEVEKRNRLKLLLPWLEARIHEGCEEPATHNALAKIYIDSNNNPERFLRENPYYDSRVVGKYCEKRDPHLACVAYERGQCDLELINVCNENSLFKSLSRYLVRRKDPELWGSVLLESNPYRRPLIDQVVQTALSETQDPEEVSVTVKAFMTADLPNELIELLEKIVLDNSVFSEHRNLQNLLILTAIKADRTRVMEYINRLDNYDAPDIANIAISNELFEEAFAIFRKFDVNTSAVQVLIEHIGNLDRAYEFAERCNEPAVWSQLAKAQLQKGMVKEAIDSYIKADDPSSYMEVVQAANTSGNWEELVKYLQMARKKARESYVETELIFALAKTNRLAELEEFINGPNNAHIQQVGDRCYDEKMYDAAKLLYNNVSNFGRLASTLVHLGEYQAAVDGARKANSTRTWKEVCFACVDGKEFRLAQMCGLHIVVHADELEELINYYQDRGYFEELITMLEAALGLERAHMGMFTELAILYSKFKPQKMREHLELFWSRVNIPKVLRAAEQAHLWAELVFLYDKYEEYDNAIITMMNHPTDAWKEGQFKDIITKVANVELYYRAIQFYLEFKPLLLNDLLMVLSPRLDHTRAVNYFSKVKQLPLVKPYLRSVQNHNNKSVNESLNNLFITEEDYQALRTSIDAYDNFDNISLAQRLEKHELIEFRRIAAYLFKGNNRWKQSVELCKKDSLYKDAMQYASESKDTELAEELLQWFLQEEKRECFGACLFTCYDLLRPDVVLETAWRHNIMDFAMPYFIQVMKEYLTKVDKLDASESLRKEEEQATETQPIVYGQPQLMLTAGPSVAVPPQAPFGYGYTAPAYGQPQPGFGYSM
binder,measurement,value
PWDLW [GFP-Wbox],Kd,3.9 µM
